These results are taken from publication PMC9879077.

The target in series [1] is T1, c-Fos;c-Jun (mouse (cDNA from ST2 cells);mouse (cDNA …, UniProt P01101;P05627 1-380;1-334, |)). The series can be described thus: EMSA. Background: In EMSA bound probe runs differently from free probe, usually more slowly.
The target of series [2] is T1, c-Fos;c-Jun. The series can be described thus: EMSA. This is another data set of the same source.

Read-outs that look alike come from different tables or passages of the source.

T1 sequence (P01101 whole entry, chain 1 of 2): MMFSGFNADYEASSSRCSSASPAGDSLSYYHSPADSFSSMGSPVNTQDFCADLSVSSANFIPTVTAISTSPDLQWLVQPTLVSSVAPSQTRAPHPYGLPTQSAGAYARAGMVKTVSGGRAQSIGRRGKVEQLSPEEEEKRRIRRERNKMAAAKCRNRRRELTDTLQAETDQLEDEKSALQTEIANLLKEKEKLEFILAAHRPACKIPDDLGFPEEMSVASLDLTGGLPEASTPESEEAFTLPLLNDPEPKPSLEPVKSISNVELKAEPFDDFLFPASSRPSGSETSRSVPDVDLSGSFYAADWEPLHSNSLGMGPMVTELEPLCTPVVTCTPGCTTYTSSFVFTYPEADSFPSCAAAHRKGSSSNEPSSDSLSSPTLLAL
T1 sequence (P05627 whole entry, chain 2 of 2): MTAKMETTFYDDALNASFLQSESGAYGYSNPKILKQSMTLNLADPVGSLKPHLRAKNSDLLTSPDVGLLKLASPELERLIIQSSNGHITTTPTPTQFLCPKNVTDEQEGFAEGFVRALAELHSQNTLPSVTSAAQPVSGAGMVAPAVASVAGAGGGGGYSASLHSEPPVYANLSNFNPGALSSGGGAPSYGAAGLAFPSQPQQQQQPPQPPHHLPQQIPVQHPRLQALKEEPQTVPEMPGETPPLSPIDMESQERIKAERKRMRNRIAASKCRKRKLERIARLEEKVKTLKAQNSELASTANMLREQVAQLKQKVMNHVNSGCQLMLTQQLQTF

B1: Oligo incl mutant TRE (dsDNA)
DNA 1: TGTGACAATGTGACAGCTGTCACATTGTCACA
DNA 2: GGTGTGACAATGTGACAGCTGTCACATTGTCACA
Regarding B1, in the series with c-Fos;c-Jun [1], the binding result is reported as “no binding”.

B2: Oligo incl TRE (dsDNA)
DNA 1: TGAGTCAATGAGTCAGCTGACTCATTGACTCA
DNA 2: GGTGAGTCAATGAGTCAGCTGACTCATTGACTCA
Consider B2, for which, in the series with c-Fos;c-Jun [2], the binding result was “binds”.
